B1: recombinant mouse IL-15, P48346 49-162 (ligand, UniProt P48346 49-162, looked up)
chain: NWIDVRYDLEKIESLIQSIHIDTTLYTDSDFHPSCKVTAMNCFLLELQVILHEYSNMTLNETVRNVLYLANSTLSSNKNVAESGCKECEELEEKTFTEFLQSFIRIVQMFINTS
B2: mouse GM-CSF and IL-15 fusion protein (fusokine) mGIFT15 (ligand)
chain: APTRSPITVTRPWKHVEAIKEALNLLDDMPVTLNEEVEVVSNEFSFKKLTCVQTRLKIFEQGLRGNFTKLKGALNMTASYYQTYCPPTPETDCETQVTTYADFIDSLKTFLTDDPGRRAIMKILKPYMRNTSISCYLCFLLNSHFLTEAGIHVFILGCVSVGLPKTEANWIDVRYDLEKIESLIQSIHIDTTLYTDSDFHPSCKVTAMNCFLLELQVILHEYSNMTLNETVRNVLYLANSTLSSNKNVAESGCKECEELEEKTFTEFLQSFIRIVQMFINTS
notes: also called purified GIFT15; purified mGIFT15

Columns and labels:
[1] = biological target: T1, recombinant mouse IL-15Ralpha-Fc (mouse), Q60819; experiment: SPR (BIACORE 3000), rIL-15Rα-Fc amine-coupled to CM5 chip, analyte injected, 1:1 interaction model; rIL-15 as analyte; conditions: remark: other sources report otherwise
T1 chain: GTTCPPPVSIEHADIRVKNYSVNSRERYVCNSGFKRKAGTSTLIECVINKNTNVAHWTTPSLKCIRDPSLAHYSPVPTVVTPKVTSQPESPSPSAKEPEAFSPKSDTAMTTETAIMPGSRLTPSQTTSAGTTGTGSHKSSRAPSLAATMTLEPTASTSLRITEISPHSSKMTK

[2] = biological target: T2, recombinant mouse IL-15Ralpha-Fc (mouse, UniProt Q60819 33-205); experiment: SPR (BIACORE 3000), rIL-15Rα-Fc amine-coupled to CM5 chip, analyte injected, 1:1 interaction model; purified GIFT15 as analyte
T2 construct: Bought from R&D Systems and amine-coupled to a CM5 chip (1300 RU); also called rmIL-15Rα-Fc; rIL-15Rα-Fc; not shown: Fc part of the commercial fusion
T2 sequence (looked up): T1 chain
Protocol: mGIFT15 was purified by immunoaffinity column packed using CNBr-sepharose (Amersham, N.J., USA) according to manufacturer's instructions. The binding interaction between mGIFT15 and rmIL-15Rα-Fc was examined in real-time using a BIACORE 3000 with research-grade CM5 sensor chips (Biacore AB, Uppsala, Sweden). Based on the manufacturer's recommendations, active CM5 surfaces were prepared by immobilizing rIL-15Rα-Fc (10 μg/mL in 10 mM sodium acetate pH 5.0) using the Amine Coupling Kit (Biacore AB) and HBS-M running buffer. Corresponding reference surfaces were prepared in the similar manner in the absence of any ligand. As a positive control, rIL-15 was injected at 50 μL/min (180 sec association+180 sec dissociation) over the reference and amine-coupled rIL-15Rα-Fc surfaces (1300 RU). Regeneration was achieved using two 30 second pulses of HBS-M containing 0.5 M NaCl, 50 mM EDTA, and 0.05% (v/v) TritonX-100 or Empigen. For the test sample, purified mGIFT15 was injected over the same sensor chip surfaces and regenerated in an identical manner. All binding data presented were “double-referenced” and analyzed according to a 1:1 interaction model using BIAevaluation 4.1 (Biacore AB).

Row | Binder | Kd [1] [nM] | Kd [2] [nM]
1 | B1 | 3 | 
2 | B2 |  | 1.4
